Consider 3 molecules from patent publication US20120058906A1 (published 2012).

Substitutions are numbered along the chain they refer to.

Assay [1] addresses T1, rHuman IGF-1 sR (IGF-1 sR), CF (R&D Systems Cat#391-GR) (human, UniProt P08069 31-932).
T1 construct: Purchased soluble receptor; also called insulin-like growth factor-1 soluble receptor; IGF-R1
Nature of the assay: MSD ECL multi-spot plate, antigen immobilized; Fab 200 nM; blank spot 588.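 Also: blank spot per well as comparator with Hit at signal to blank ratio of 4 or more.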

The target of assay [2] is T2, rHuman P-Cadherin/Fc Chimera, CF (R&D Systems Cat#861-PC) (human, UniProt P22223 108-654).
T2 construct: Purchased Fc chimera; not shown: Fc portion of the purchased chimera
Described as above.

Assay [3] concerns the target T3, rHuman Erythropoietin R/Fc Chimera, CF (R&D Systems Cat#963-ER) (human, UniProt P19235 25-250).
T3 construct: Purchased Fc chimera; also called EPO R/Fc; Epo R; not shown: Fc portion of the purchased chimera
T3 sequence: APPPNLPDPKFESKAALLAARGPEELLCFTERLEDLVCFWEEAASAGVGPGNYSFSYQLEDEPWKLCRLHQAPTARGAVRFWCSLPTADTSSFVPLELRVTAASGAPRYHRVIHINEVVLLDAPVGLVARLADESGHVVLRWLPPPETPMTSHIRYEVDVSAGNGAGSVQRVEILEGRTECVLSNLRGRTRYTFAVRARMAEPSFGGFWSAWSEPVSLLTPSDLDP
Described as above.

The target of assay [4] is T4, Recombinant Human DLL4 (R&D Systems Cat#1506-D4/CF) (human, UniProt Q9NR61 27-524).
T4 construct: Purchased recombinant protein; also called delta-like protein 4
The assay is described as above.

The target in assay [5] is T5, rHuman EGF R/Fc Chimera, CF (R&D Systems Cat#344-ER) (human, UniProt P00533 25-645).
T5 construct: Purchased Fc chimera; not shown: Fc portion of the purchased chimera
Described as above.

For assay [6], the target named is T6, rHuman HGF R/c-MET/Fc Chimera, CF (R&D Systems Cat#358-MT/CF) (human, UniProt P08581 25-932).
T6 construct: Purchased Fc chimera; also called HGF R/Fc; not shown: Fc portion of the purchased chimera
The assay is described as above.

The target of assay [7] is T7, rHuman CD44/Fc Chimera, CF (R&D Systems Cat#3660-CD) (human, UniProt P16070 21-220).
T7 construct: Purchased Fc chimera; not shown: Fc portion of the purchased chimera
The description is as above.

Assay [8] deals with T8, rHuman P-Cadherin/Fc Chimera, CF (R&D Systems Cat#861-PC) (human, UniProt P22223 108-654).
T8 construct: Bought Fc chimera; also called CDH3; not shown: Fc of the bought chimera
Nature of the assay: ECL (MSD multi-spot), antigen on plate, Fab 0.5 nM.

Assay [9] has as its target T9, Recombinant Human DLL4 (R&D Systems Cat#1506-D4/CF) (human, UniProt Q9NR61 27-524).
T9 construct: Bought recombinant protein; also called delta-like protein 4
Nature of the assay: ECL (MSD multi-spot), antigen on plate, Fab 0.5 nM.

Assay [10] addresses T10, rHuman Notch-1/Fc Chimera, CF (R&D Systems Cat#3647-TK) (human, UniProt P46531 19-526).
T10 construct: Bought Fc chimera; not shown: Fc of the bought chimera
The assay is described as follows: ECL (MSD multi-spot), antigen on plate, Fab 0.5 nM.

Assay [11] addresses T11, rHuman IGF-1 sR (insulin-like growth factor-1 soluble receptor), CF (R&D Systems Cat#391-GR) (human, UniProt P08069 31-932).
T11 construct: Bought soluble receptor; also called IGF-R1
Nature of the assay: ECL (MSD multi-spot), antigen on plate, Fab 0.4 nM.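 Also: blank spot per well as comparator with Hit at signal to blank ratio of 4 or more.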

Assay [12] has as its target T8, rHuman P-Cadherin/Fc Chimera, CF (R&D …). The assay is described as follows: ECL (MSD multi-spot), antigen on plate, Fab 0.4 nM.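 Also: blank spot per well as comparator with Hit at signal to blank ratio of 4 or more.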
In assay [13] the target is T12, rHuman Erythropoietin R/Fc Chimera, CF (R&D Systems Cat#963-ER) (human, UniProt P19235 25-250).
T12 construct: Bought Fc chimera; also called EPO R/Fc; Epo R; not shown: Fc of the bought chimera
T12 sequence: T3 sequence
Nature of the assay: ECL (MSD multi-spot), antigen on plate, Fab 0.4 nM.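 Also: blank spot per well as comparator with Hit at signal to blank ratio of 4 or more.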

Assay [14] deals with T9, Recombinant Human DLL4 (R&D Systems …). Nature of the assay: ECL (MSD multi-spot), antigen on plate, Fab 0.4 nM.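 Also: blank spot per well as comparator with Hit at signal to blank ratio of 4 or more.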
The target of assay [15] is T13, rHuman ErbB2/Fc Chimera, CF (R&D Systems Cat#1129-ER) (human, UniProt P04626 23-652).
T13 construct: Bought Fc chimera; also called HER2/neu; not shown: Fc of the bought chimera
The assay is described as follows: ECL (MSD multi-spot), antigen on plate, Fab 0.4 nM.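 Also: blank spot per well as comparator with Hit at signal to blank ratio of 4 or more.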

In assay [16] the target is T14, rHuman EGF R/Fc Chimera, CF (R&D Systems Cat#344-ER) (human, UniProt P00533 25-645).
T14 construct: Bought Fc chimera; also called ErbB-1; not shown: Fc of the bought chimera
Nature of the assay: ECL (MSD multi-spot), antigen on plate, Fab 0.4 nM.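 Also: blank spot per well as comparator with Hit at signal to blank ratio of 4 or more.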

For assay [17], the target named is T15, rHuman HGF R/c-MET/Fc Chimera, CF (R&D Systems Cat#358-MT/CF) (human, UniProt P08581 25-932).
T15 construct: Bought Fc chimera; also called HGF R/Fc; not shown: Fc of the bought chimera
Nature of the assay: ECL (MSD multi-spot), antigen on plate, Fab 0.4 nM.

The target of assay [18] is T10, rHuman Notch-1/Fc Chimera, CF (R&D …). The assay is described as follows: ECL (MSD multi-spot), antigen on plate, Fab 0.4 nM.
The target in assay [19] is T16, rHuman CD44/Fc Chimera, CF (R&D Systems Cat#3660-CD) (human, UniProt P16070 21-220).
T16 construct: Bought Fc chimera; not shown: Fc of the bought chimera
The assay is described as follows: ECL (MSD multi-spot), antigen on plate, Fab 0.4 nM.

B1: Fab VH5-51_IGHD5-18*01>3_IGHJ4*01_G100K & V3-4_IGLJ1*01 (Fab, V domains shown)
VH: EVQLVQSGAEVKKPGESLKISCKGSGYSFTSYWIGWVRQMPGKGLEWMGIIYPGDSDTRYSPSFQGQVTISADKSISTAYLQWSSLKASDTAMYYCARRKYSYGYDYFDYWGQGTLVTVSS
VL: QTVVTQEPSFSVSPGGTVTLTCGLSSGSVSTSYYPSWYQQTPGQAPRTLIYSTNTRSSGVPDRFSGSILGNKAALTITGAQADDESDYYCVLYMGSGISYVFGTGTKVTVL
notes: It was expressed as a Fab: CH1 with tags from Plasmid A and lambda CL from Plasmid E; also called Fab No. 22
Regarding B1, the ECL signal in [1] was 1320 ECL signal; in assay [2], 1130 ECL signal; in assay [3], 1230 ECL signal; in [4] it was 45400 ECL signal; in assay [5], 1370 ECL signal; in [6], 1430 ECL signal. The molecule further displayed an ECL signal in [7] of 1160 ECL signal.

B2: Fab VH1-46_IGHD6-6*01_IGHJ1*01_S102A_S103P_S104Y_H111Y & L6_IGKJ1*01 (Fab, V domains shown)
VH: QVQLVQSGAEVKKPGASVKVSCKASGYTFTSYYMHWVRQAPGQGLEWMGIINPSGGSTSYAQKFQGRVTMTRDTSTSTVYMELSSLRSEDTAVYYCAREEYAPYSAEYFQYWGQGTLVTVSS
VL: not shown
notes: Fab made in E. coli; The heavy chain also carries CH1 with Flag and His tags from Plasmid A, and the light chain carries kappa CL from Plasmid C
Turning to B2, the ECL signal was found to be 2630 ECL signal in assay [8], 5150 ECL signal in assay [9] and 1760 ECL signal in assay [10].

B3: Fab VH1-46_IGHD6-6*01_IGHJ1*01_S102A_S103P_S104F & L6_IGKJ1*01_S28P (Fab, V domains shown)
VH: B2 VH with Y104F, Y111H
VL: EIVLTQSPATLSLSPGERATLSCRASQPVSSYLAWYQQKPGQAPRLLIYDASNRATGIPARFSGSGSGTDFTLTISSLEPEDFAVYYCQQRSNWPPWTFGQGTKVEIKR
notes: Fab
Consider B3, for which the ECL signal in assay [11] amounted to 172 ECL signal; in assay [12], 191 ECL signal; in assay [13], 147 ECL signal; in assay [14] it was 1140 ECL signal; in assay [15], 275 ECL signal; in [16] it was 246 ECL signal. The ECL signal in assay [17] was found to be 199 ECL signal; in assay [18], 248 ECL signal; in [19], 257 ECL signal.
